# Data from the supplement of paper PMC10567573.
# B1: TMEM106C (parent)
# chain: FTGRDSITCLTCQGTGYIPTEQVN
# Variants of: B1
# Assay: protein stability index of a GFP-peptide fusion (GPS, HEK-293T) (PSI 1-6); higher = more stable
# Details: c terminus: a fixed tail appended
# 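Also: lentivirally expressed fusions sorted by FACS into six bins by GFP to DsRed ratio, PSI derived from sequencing read proportions per bin multiplied by bin number.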
row,Variant,protein stability index
1,FTWRDSITCLTCQGTGYIPTEQVN,1.48
2,FTLRDSITCLTCQGTGYIPTEQVN,3.45
3,FTERDSITCLTCQGTGYIPTEQVN,2.7
4,FTCRDSITCLTCQGTGYIPTEQVN,1.89
5,FTMRDSITCLTCQGTGYIPTEQVN,2.81
6,FTNRDSITCLTCQGTGYIPTEQVN,2.12
7,FTRRDSITCLTCQGTGYIPTEQVN,2.84
8,FTARDSITCLTCQGTGYIPTEQVN,2.79
9,FTVRDSITCLTCQGTGYIPTEQVN,2.99
10,FTQRDSITCLTCQGTGYIPTEQVN,2.09
11,FTKRDSITCLTCQGTGYIPTEQVN,3.49
12,FTFRDSITCLTCQGTGYIPTEQVN,1.7
13,FTTRDSITCLTCQGTGYIPTEQVN,2.04
14,FTSRDSITCLTCQGTGYIPTEQVN,1.46
15,FTHRDSITCLTCQGTGYIPTEQVN,1.7
16,FTIRDSITCLTCQGTGYIPTEQVN,2.33
17,FTYRDSITCLTCQGTGYIPTEQVN,2.45
18,FTPRDSITCLTCQGTGYIPTEQVN,2.76
19,FTGDDSITCLTCQGTGYIPTEQVN,3.14
20,FTGYDSITCLTCQGTGYIPTEQVN,1.65
21,FTGWDSITCLTCQGTGYIPTEQVN,2.62
22,FTGGDSITCLTCQGTGYIPTEQVN,1.74
23,FTGSDSITCLTCQGTGYIPTEQVN,3.04
24,FTGCDSITCLTCQGTGYIPTEQVN,2.32

row,Variant,protein stability index
1,FTGIDSITCLTCQGTGYIPTEQVN,2.48
2,FTGHDSITCLTCQGTGYIPTEQVN,1.98
3,FTGEDSITCLTCQGTGYIPTEQVN,2.59
4,FTGMDSITCLTCQGTGYIPTEQVN,2.33
5,FTGADSITCLTCQGTGYIPTEQVN,1.86
6,FTGTDSITCLTCQGTGYIPTEQVN,1.87
7,FTGNDSITCLTCQGTGYIPTEQVN,2.8
8,FTGLDSITCLTCQGTGYIPTEQVN,1.81
9,FTGFDSITCLTCQGTGYIPTEQVN,2.52
10,FTGVDSITCLTCQGTGYIPTEQVN,1.7
11,FTGKDSITCLTCQGTGYIPTEQVN,2.12
12,FTGQDSITCLTCQGTGYIPTEQVN,2.46
13,FTGPDSITCLTCQGTGYIPTEQVN,2.41
14,FTGRDSITCSTCQGTGYIPTEQVN,2.85
15,FTGRDSITCTTCQGTGYIPTEQVN,2.65
16,FTGRDSITCITCQGTGYIPTEQVN,1.98
17,FTGRDSITCVTCQGTGYIPTEQVN,2.2
18,FTGRDSITCPTCQGTGYIPTEQVN,4.51
19,FTGRDSITCRTCQGTGYIPTEQVN,2.36
20,FTGRDSITCFTCQGTGYIPTEQVN,3
21,FTGRDSITCQTCQGTGYIPTEQVN,3.17
22,FTGRDSITCCTCQGTGYIPTEQVN,1.99
23,FTGRDSITCDTCQGTGYIPTEQVN,3.96
24,FTGRDSITCGTCQGTGYIPTEQVN,2.02

row,Variant,protein stability index
1,FTGRDSITCKTCQGTGYIPTEQVN,2.7
2,FTGRDSITCHTCQGTGYIPTEQVN,2.84
3,FTGRDSITCETCQGTGYIPTEQVN,3.8
4,FTGRDSITCMTCQGTGYIPTEQVN,1.91
5,FTGRDSITCATCQGTGYIPTEQVN,2.29
6,FTGRDSITCNTCQGTGYIPTEQVN,2.77
7,FTGRDSITCYTCQGTGYIPTEQVN,3.42
8,FTGRDSITCWTCQGTGYIPTEQVN,2.01
9,FTGRVSITCLTCQGTGYIPTEQVN,4.33
10,FTGRCSITCLTCQGTGYIPTEQVN,3.35
11,FTGRWSITCLTCQGTGYIPTEQVN,3.14
12,FTGRHSITCLTCQGTGYIPTEQVN,2.82
13,FTGRISITCLTCQGTGYIPTEQVN,2.65
14,FTGRKSITCLTCQGTGYIPTEQVN,1.84
15,FTGRRSITCLTCQGTGYIPTEQVN,1.87
16,FTGRTSITCLTCQGTGYIPTEQVN,2.15
17,FTGRYSITCLTCQGTGYIPTEQVN,3.35
18,FTGRLSITCLTCQGTGYIPTEQVN,2.66
19,FTGRSSITCLTCQGTGYIPTEQVN,2.29
20,FTGRFSITCLTCQGTGYIPTEQVN,3
21,FTGRPSITCLTCQGTGYIPTEQVN,2.12
22,FTGRESITCLTCQGTGYIPTEQVN,1.96
23,FTGRASITCLTCQGTGYIPTEQVN,1.94
24,FTGRNSITCLTCQGTGYIPTEQVN,1.56

row,Variant,protein stability index
1,FTGRMSITCLTCQGTGYIPTEQVN,2.73
2,FTGRGSITCLTCQGTGYIPTEQVN,1.49
3,FTGRQSITCLTCQGTGYIPTEQVN,2.17
4,FTGRDSITCLACQGTGYIPTEQVN,2.32
5,FTGRDRITCLTCQGTGYIPTEQVN,2.45
6,FTGRDPITCLTCQGTGYIPTEQVN,2.18
7,FTGRDAITCLTCQGTGYIPTEQVN,2.27
8,FTGRDVITCLTCQGTGYIPTEQVN,2.5
9,FTGRDMITCLTCQGTGYIPTEQVN,1.79
10,FTGRDHITCLTCQGTGYIPTEQVN,2.43
11,FTGRDEITCLTCQGTGYIPTEQVN,2.73
12,FTGRDKITCLTCQGTGYIPTEQVN,2.34
13,FTGRDNITCLTCQGTGYIPTEQVN,2.58
14,FTGRDFITCLTCQGTGYIPTEQVN,2.38
15,FTGRDYITCLTCQGTGYIPTEQVN,2.04
16,FTGRDDITCLTCQGTGYIPTEQVN,2.58
17,FTGRDLITCLTCQGTGYIPTEQVN,2.16
18,FTGRDIITCLTCQGTGYIPTEQVN,2.92
19,FTGRDGITCLTCQGTGYIPTEQVN,1.9
20,FTGRDQITCLTCQGTGYIPTEQVN,2.05
21,FTGRDCITCLTCQGTGYIPTEQVN,1.99
22,FTGRDTITCLTCQGTGYIPTEQVN,2.43
